Measured values as given in PMC8316464, “Structures of the ApoL1 and ApoL2 N-terminal domains reveal a non-classical four-helix bundle motif” (Communications Biology, 2021).

B1: Bid BH3 peptide (25-mer, residues 77-101) (peptide)
peptide: ESQEDIIRNIARHLAQVGDSMDRSI
notes: Bid, BH3-only motif, residues 77-101; source: synthetic peptide (ABclonal, >95% purity)
B2: Bid (A87I) peptide (peptide)
peptide: ESQEDIIRNIIRHLAQVGDSMDRSI
notes: source: synthetic peptide (ABclonal, >95% purity)
B3: Ab6D12 (antibody, V domains shown)
VH: EVMLVESGGGLVRPGGSLKLSCTASGFTFSRCAMSWVRQTPEKRLEWVSAISRDSTYTYYSDSVKGRFTVSRDNAKNTLYLQMSSLRSEDTAMYYCARQIDDYYVDALDYWGQGTSVTVSS
VL: DVQITQSPSYLAASPGETITINCRASKIISKYLAWYQEKPGKTIKLLIYSGFTLQSGIPSRFSGSGSGTDFTLTISSLEPEDFAMYYCQQHNEYPLTFGAGTKLEIK
notes: mouse VH, as the variable part of the heavy chain of m1; mouse heavy chain constant region; mouse VL, as the variable part of the light chain of m1; mouse light chain constant region; Mouse anti-human ApoL1 antibody; also called 3.6D12; murine Ab6D12
B4: Fab6D12 (Fab, V domains shown)
VH: B3 VH
VL: B3 VL
notes: Chimeric Fab: mouse variable domains on human constant domains; also called Fab of Ab6D12; 3.6D12 Fab; source: E. coli strain 64B4, secreted into the periplasm, purified (protein G, SP Sepharose, Superdex 75)
B5: Bim (A149I) peptide (peptide)
peptide: DMRPEIWIIQELRRIGDEFNAYYAR
notes: also called Bim (A149A) (as printed in the methods); source: synthetic peptide (ABclonal, >95% purity)
B6: Fab7D6 (Fab, V domains shown)
VH: QIQLVQSGPDLKKPGETVKISCRTSGYAFTNYGVNWVKQAPGKGLKWMGWINTNTGQTTYAEEFRGRFAISLETSASTAFLTISNLKNEDSATYFCARLIYDGDYISSDFWGQGTTLTVSS
VL: DIQMTQSPDSLSASVGETVTITCGASENIYGALNWYQRKQGKSPQLLIYGATNLADGMSSRFSGSRSGRQYSLKISSLHPDDVATYYCQNALSMPYTFGGGTNLETK
notes: Chimeric Fab: mouse variable domains on human constant domains; also called Fab of Ab7D6; 3.7D6 Fab; source: E. coli strain 64B4, secreted into the periplasm, purified (protein G, SP Sepharose, Superdex 75)
B7: Ab7D6 (antibody, V domains shown)
VH: B6 VH
VL: B6 VL
notes: mouse VH, as the variable part of the heavy chain of m3; mouse heavy chain constant region; mouse VL, as the variable part of the light chain of m3; mouse light chain constant region; Mouse anti-human ApoL1 antibody; also called 3.7D6
B8: Ab3B6 (antibody, V domains shown)
VH: QVQLQQSGAELARPGASVKLSCKASGYTFTSHWMQWLKQRPGQGLEWIGAIYPGDGDTKFTQKFKDKATLTADKSSTTAYMQLSSLASEDSAVYYCARENLYGYYFDYWGQGTTLTVSS
VL: QAVVTQESALTTSPGETVTLTCRSSTGAVTSGNFANWVQEKPDHLFTGLIGGADNRAPGVPARFSGSLIGDKAALIITGAQTEDEAIYFCALWYSDHWVFGGGTKLTVL
notes: mouse VH, as the variable part of the heavy chain of m2; mouse heavy chain constant region; mouse VL, as the variable part of the light chain of m2; mouse light chain constant region; Mouse anti-human ApoL1 antibody; also called 3.3B6

What was measured:
[1] = target: T1, Bfl-1 (human, UniProt Q16548 1-175); assay: SPR; Biacore S200; Bcl-2 family proteins immobilised on CM5 (amine coupling or His-Capture Kit); peptides and flag-tagged proteins as analytes, single-cycle kinetics, HBS-EP, 25 °C; 1:1 Langmuir model; absence of binding probed at 100 nM and 3 µM; conditions: both partners purified
T1 construct: Bfl-1 (Bcl-2-related protein A1), human recombinant; also called Bcl-2-related protein A1; source: bought: R&D Systems
T1 sequence (looked up): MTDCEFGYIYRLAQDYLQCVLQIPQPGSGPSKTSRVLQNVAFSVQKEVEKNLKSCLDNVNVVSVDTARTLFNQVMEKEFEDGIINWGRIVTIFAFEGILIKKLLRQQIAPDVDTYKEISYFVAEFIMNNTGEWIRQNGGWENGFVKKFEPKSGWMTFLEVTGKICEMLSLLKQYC

[2] = target: T2, Bcl-w (human, UniProt Q92843 1-193); assay: as above; conditions: both partners purified
T2 construct: Bcl-w, human recombinant; source: bought: R&D Systems
T2 sequence (looked up): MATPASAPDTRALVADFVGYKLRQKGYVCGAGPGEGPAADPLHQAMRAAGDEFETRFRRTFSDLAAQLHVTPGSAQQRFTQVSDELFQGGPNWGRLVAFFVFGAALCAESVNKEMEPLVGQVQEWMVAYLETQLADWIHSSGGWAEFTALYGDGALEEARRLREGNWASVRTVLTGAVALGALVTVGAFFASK

[3] = target: T3, ApoL4-Myc (Homo sapiens, UniProt Q9BPW4); assay: immunostaining of cells or tissue; transiently transfected COS7 cells fixed (3% paraformaldehyde) and permeabilized (0.1% Triton-X-100); mouse anti-ApoL1 antibodies at 2 µg/ml in PBS, 1 h, room temperature; Alexa488-anti-mouse; co-stained with anti-myc; conditions: one partner purified
T3 construct: Apolipoprotein L4, human; The homology model (not this construct) used isoform 2, NP_663693; source: COS7, transiently transfected; in lysate (immunoprecipitation) or in fixed, permeabilized cells (immunofluorescence); not shown: Myc, C-terminal, kept
T3 sequence (Q9BPW4 22-351): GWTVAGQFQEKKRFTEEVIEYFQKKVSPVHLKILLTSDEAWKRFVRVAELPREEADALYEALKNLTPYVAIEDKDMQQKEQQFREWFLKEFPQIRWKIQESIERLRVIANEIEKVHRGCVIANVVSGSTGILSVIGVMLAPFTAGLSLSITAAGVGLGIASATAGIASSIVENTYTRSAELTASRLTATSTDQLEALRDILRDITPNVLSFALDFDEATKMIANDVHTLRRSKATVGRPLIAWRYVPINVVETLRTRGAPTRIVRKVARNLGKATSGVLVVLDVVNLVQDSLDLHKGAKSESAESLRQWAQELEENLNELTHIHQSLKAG

[4] = target: T4, full-length ApoL1 with N-terminal flag-tag (human, UniProt O14791-1); assay: SPR; Biacore T200; anti-ApoL1 antibodies captured (~250 RU) by anti-murine Fc antibody on a CM5 chip; ApoL1 0.8–500 nM injected in HBS-P (10 mM HEPES pH 7.4, 150 mM NaCl, 0.005% P20) at 37 °C, 100 µl/min; 1:1 Langmuir model; KD = koff/kon; conditions: both partners purified
T4 construct: also called Apolipoprotein L1; not shown: FLAG, N-terminal, kept
T4 sequence (O14791 28-398): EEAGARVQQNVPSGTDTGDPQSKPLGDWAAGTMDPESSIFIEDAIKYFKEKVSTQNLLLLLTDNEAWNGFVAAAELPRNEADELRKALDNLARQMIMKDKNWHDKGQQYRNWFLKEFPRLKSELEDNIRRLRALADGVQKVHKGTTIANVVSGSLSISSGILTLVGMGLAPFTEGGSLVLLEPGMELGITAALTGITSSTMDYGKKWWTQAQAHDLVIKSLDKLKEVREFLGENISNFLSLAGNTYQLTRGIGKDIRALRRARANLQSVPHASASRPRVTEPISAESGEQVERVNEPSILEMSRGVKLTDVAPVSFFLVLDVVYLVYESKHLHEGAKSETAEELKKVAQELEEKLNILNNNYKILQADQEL

[5] = target: T5, human untagged ApoL2 expressed in COS7 cells (Homo sapiens, UniProt Q9BQE5); assay: immunoprecipitation; 20 µg antibody pre-immobilised on Dynabeads Protein G, incubated 20 min at RT with M-PER lysates of cells expressing ApoL1-6 (35 µg total protein for ApoL1-3, 500 µg for ApoL4-6); four washes PBS/0.02% Tween-20; blot with anti-ApoL1/2 or anti-Myc; conditions: one partner purified
T5 construct: Apolipoprotein L2, human, untagged; source: COS7, transiently transfected; in lysate (immunoprecipitation) or in fixed, permeabilized cells (immunofluorescence)
T5 sequence (Q9BQE5 whole entry): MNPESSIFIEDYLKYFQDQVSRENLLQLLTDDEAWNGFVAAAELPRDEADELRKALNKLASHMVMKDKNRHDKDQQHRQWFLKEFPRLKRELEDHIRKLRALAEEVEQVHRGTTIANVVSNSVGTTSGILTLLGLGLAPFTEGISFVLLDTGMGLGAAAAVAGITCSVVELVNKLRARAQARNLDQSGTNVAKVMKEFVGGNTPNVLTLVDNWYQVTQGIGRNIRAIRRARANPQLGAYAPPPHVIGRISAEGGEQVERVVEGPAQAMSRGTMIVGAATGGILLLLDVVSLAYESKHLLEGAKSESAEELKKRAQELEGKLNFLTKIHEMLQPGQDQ

[6] = target: T6, ApoL3-Myc-Flag (Homo sapiens, UniProt O95236); assay: as above; conditions: one partner purified
T6 construct: Apolipoprotein L3, human; The homology model (not this construct) used isoform 1, NP_663615.1; source: COS7, transiently transfected; in lysate (immunoprecipitation) or in fixed, permeabilized cells (immunofluorescence); not shown: Myc, C-terminal, kept; FLAG, C-terminal, kept
T6 sequence (O95236 whole entry, canonical isoform): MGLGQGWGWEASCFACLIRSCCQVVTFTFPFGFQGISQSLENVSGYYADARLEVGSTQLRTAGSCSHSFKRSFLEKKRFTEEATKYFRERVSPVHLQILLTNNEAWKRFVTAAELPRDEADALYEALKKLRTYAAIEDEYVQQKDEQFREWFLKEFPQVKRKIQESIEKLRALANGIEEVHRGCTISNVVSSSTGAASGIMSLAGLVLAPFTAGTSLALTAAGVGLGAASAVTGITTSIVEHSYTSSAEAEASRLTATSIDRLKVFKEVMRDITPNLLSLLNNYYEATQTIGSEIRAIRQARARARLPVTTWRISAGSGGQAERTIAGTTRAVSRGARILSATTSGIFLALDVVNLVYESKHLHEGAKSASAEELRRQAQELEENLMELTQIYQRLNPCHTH

[7] = target: T7, ApoL2-NTD (N2-T113), His tag removed (human, UniProt Q9BQE5); assay: crystal structure; Fab complexes formed with 1.5 molar excess of NTD and purified on Superdex-200 in 0.15 M NaCl, 25 mM Tris pH 8.0, about 10 mg/ml; Fab7D6 also crystallised with the synthetic peptide E152–H169; conditions: both partners purified
T7 construct: Apolipoprotein L2, human, N-terminal domain residues N2-T113, Genbank NP_112092.2; source: Sf9 insect cells (baculovirus), purified (Ni resin, S75, TEV digestion, S75)
T7 sequence (Q9BQE5 other isoform, or with tags, fused parts or gaps): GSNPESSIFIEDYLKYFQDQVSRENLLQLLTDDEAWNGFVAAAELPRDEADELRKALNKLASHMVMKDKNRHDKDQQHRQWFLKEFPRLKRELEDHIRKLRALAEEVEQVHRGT

[8] = target: T8, ApoL1-peptide (BH3-like peptide E152–H169) (human, UniProt O14791); assay: as above; conditions: both partners purified
T8 construct: Apolipoprotein L1, human, residues E152-H169; also called ApoL1-BH3 peptide; BH3 peptide; source: synthetic peptide (NEO Scientific)
T8 chain: EDNIRRLRALADGVQKVH

[9] = target: T9, flag-tagged ApoL1-NTD (D61–T172) (human, UniProt O14791); assay: SEC-MALS; XBridge BEH 200 Å column in PBS, 0.02% sodium azide, 1 ml/min; complex formed with a twofold molar excess of ApoL1-NTD (46.8 µM) over Fab7D6, 30 min at room temperature; components also run alone; conditions: both partners purified
T9 construct: Apolipoprotein L1, human, N-terminal domain residues D61-T172; E150 variant; the tag is said to be removed only for X-ray studies; source: Sf9 insect cells (baculovirus), purified (anti-flag resin, S75 size exclusion)
T9 sequence (O14791 61-172): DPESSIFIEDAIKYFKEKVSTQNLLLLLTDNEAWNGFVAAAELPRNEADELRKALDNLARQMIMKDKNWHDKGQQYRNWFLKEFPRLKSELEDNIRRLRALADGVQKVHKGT

Kd [1] [nM] | Kd [2] [nM] | Kd [4] [nM] | other results | Binder
0.31 | 24.2 | – | – | B1
1430 | 65.2 | – | – | B2
– | – | 0.86 | binding result [3]: binds; binding result [5]: binds; binding result [6]: binds | B3
– | – | – | binding result [7]: binds | B4
18.8 | 23.1 | – | – | B5
– | – | – | binding result [8]: binds; stoichiometry N [9]: 1 | B6
– | – | 1.63 | – | B7
– | – | 1.56 | binding result [5]: binds; binding result [6]: binds | B8
